Measured values: US6884597B1, “Method for detecting acetyltransferase and deacetylase activities and method for screening inhibitors or enhancers of these enzymes” (Medical & Biological Laboratories, Co., Ltd., priority 1998, dated 2005)

System: sub p53-1 and sub p53-2 peptides
Assay: ELISA system for measuring the deacetylase activity (liquid and solid phase)
Format: biochemical, human
Settings: 0 to 10 μg/ml; liquid and solid phases; depending on the concentration; FIGS. 11 and 12
Method: Two peptide substrates “Sub Ac p53-1” (SEQ ID NO: 17/Bio-STSRHKK(Ac)LMFKTE and “Sub Ac p53-2” (SEQ ID NO: 18/Bio-SHLKSKK (Ac) GQSTSR) in which an acetyl group was introduced into the ε amino group on the 373rd and 382nd lysine residues of human p53, were prepared by a peptide synthesizer. An amino acid in a peptide is shown by the one-letter code and “Bio” at the amino ends means biotin. K(Ac) indicates an acetylated lysine residue. Ninety percent or higher purity of the synthesized peptides was confirmed by HPLC. “Sub Ac p53-1” and “Sub Ac p53-2” were composed of amino acid residues 376 to 388 and 367 to 379, of human p53, respectively.
Two peptides substrate were dissolved in PBS to 10 μg/ml. 50 μl of each peptide solution were added to each well on a microtiter plate for ELISA, and sensitized at 4° C. overnight. […]
The synthesized peptide substrates and the recombinant deacetylase were reacted in the liquid phase, and the enzyme activity was measured by ELISA system using a microtiter plate. […] 100 μl of 1.5 N phosphate solution were added thereto to terminate the coloring reaction, and absorbance at 450 nm was measured using a microtiter plate reader. • Solid Phase Analysis System (Refer to FIG. 4) […]

How did the “deacetylase activities in sub p53-1 and sub p53-2 peptides” value turn out when “recombinant HDAC1: recombinant deacetylase HDAC1/RPD3 (full length) purified from E. coli” was run?
The value was “detected”.
